We go through 1 molecule from article PMC6328183 (2019).

This experiment addresses FuBc protein (recombinant protein of the fusion loop and Bc loop of domain II of dengue envelope protein with … (DENV-2 (of the template structure PDB …, UniProt P12823))). Kind of experiment: SPR.

For orientation: koff means the first-order rate constant of dissociation.

B1: 3IXY scFv antibody (VH and VL of the anti-fusion loop dengue E53 Fab, PDB 3IXY, joined by a (G4S)3 linker) (scFv, V domains shown)
VH: EVKLVESGGGLVLPGGSLRLSCATSGFTFTDYYMTWVRQPPGKALEWLGFIGNKANDYTTEYSASVKGRFTISRDDSQSILYLQMSTLRAEDRATYYCATVYGNYPYFDVWGAGTTVAVSS
VL: QIVLTQSPAIMSASPGEKVTMTCSASSSVSYMHWYQQKSGTSPKIWIYESSKLASGVPVRFSGSGSGTSYSLTISSMEAEDVATYYCQQWSSHPHPLTFGAGTKLELK
In the case of B1, the koff came to 0.0077 s⁻¹.
